Data as given in publication PMC6783550, “Molecular mechanism of azoxy bond formation for azoxymycins biosynthesis” (Nature Communications, 2019).

How the values were obtained:
[1] = tested on: Nc1ccc(/C=C/C(=O)O)cc1; assay: purified protein; conditions: 30 °C, general assay: 1 mM NADH, 10 μM PMS, O2, 20 mM HEPES pH 7
[2] = biological target: AzoC (Streptomyces chattanoogensis); assay: native gel or EMSA + SEC; Native-PAGE and size-exclusion chromatography of purified recombinant AzoC; SEC on Sephacryl S-300, AKTA Purifier, 4 °C, 20 mM Tris pH 8.0, 250 mM NaCl, 1 mL/min, markers IgG (150 kDa) and BSA (67 kDa); self-association, homodimer

| Substance | Km [1] [µM] | kcat [1] [s⁻¹] | stoichiometry N [2] |
| --- | --- | --- | --- |
| AzoC (Streptomyces chattanoogensis) | 4.24 ± 0.9 | 0.7005 ± 0.0698 |  |
| AzoC (enzyme) |  |  | 2 |
